± gives the half width of the 95% confidence interval.
Assay: folding stability dG unfold from chymotrypsin proteolysis; higher = more stable
Outline: (§1)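 How resistant each design was to proteolysis was captured as K50, inferred by Bayesian fitting of sequencing counts. Unfolding free energy was then derived relative to a sequence-predicted unfolded-state K50 and a shared folded-state K50, per protease or combined. Digestion used trypsin and chymotrypsin at 11 threefold-diluted concentrations plus a no-protease condition, on mini-proteins under 80 residues without cysteine in a PA-tagged cDNA display construct. Designs were kept only when AlphaFold2 dimer inter-PAE was above 15.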

Row | Sequence | folding stability dG unfold [kcal/mol]
1 | SAGGSAGGDEVKIEVEVKKVKVKVRVRVKNEDGEEKEVEKEFEVEVVKVKIEFKSPEEAKKLGLSAGGSAGG [r6_149_TrROS_Hall] | 0.144 ± 0.42
2 | SSMSSSPLGSDPATGTTYYLSVSNNSTTLSTVTPAPVLPISPEELEKIAKELAKKNPKLAKKAKELAEKLKS [r1_330_JUSTAS] | 0.123 ± 0.25
3 | SAGGSAGGSGMSPEALAIKEQVKAEHPDLRVEVKEKILPNGTLEITVTFDDGTTETYTIPIGESAGGSAGGS [r20_210_JUSTAS] | 3.36 ± 0.048
4 | SAGGEKVTVTVTTETKTVTVTVYKAPAPKFKVTEITLELDENGNLRLTIKLENGETLEFDSLEDLLAALSAG [r5_618_TrROS_Hall] | 3.17 ± 0.15
5 | SAGGSAGGSAGGKIIVVKDKETGKYRVIIVDKKTKKTIVVEVDPNTTLEEALKKAKELLKSAGGSAGGSAGG [r7_138_TrROS_Hall] | 3.97 ± 0.12
6 | SAGGSAGGSAGTLTLRVQLFDEDGRLVAEREVELEVELPPPPPVELEFDEETRELRRRRLSAGGSAGGSAGG [r17_348_TrROS_Hall] | 0.811 ± 0.22
7 | SAGGSAGGSAVVALTPDGALAVWFPEKGVVVVYNPATGTYTVLTVDADNTVTLEDVPPNTDVFSAGGSAGGS [r12_997_TrMRF] | 1.13 ± 0.07
8 | SAGPKIEIHYTPNGIHLTIELPGEWIWMMIPVPPGEKVKIRLPGNGLEITARPYDDYVMIRIRIPDAPSAGG [r19_384_TrROS] | 5.3 ± 0.16
9 | SAGGSAGGSAGGKIDRIQLHYNPGGNVYFRIYGPNGKPRYFMMPAEDLEDFPNAPIEIYPSAGGSAGGSAGG [r7_238_TrROS] | 0.847 ± 0.11
10 | SAGGSAGGSAGMMVVRAKIKLPNGEVLEIENMSLEEILALAKEKGYEIVDIEVVAPDEEPSAGGSAGGSAGG [r11_283_TrMRF] | 4.07 ± 0.14
11 | SAGGSAGGSMADITITVTDPATGATRTFPHSVSLEEILAEHPGPVTVTIETPTSTTTLQVPRESAGGSAGGS [r12_1056_JUSTAS] | 0.0731 ± 0.084
12 | SAGGSAGGSDMVLVTAPVDIPPNVKVEIKLKDGYETVSYDPESGRLVILVPANKLDEVLEAIKSAGGSAGGS [r12_476_TrMRF] | 2.01 ± 0.087
13 | SAGGSAGGSAGGMILVQDKKTKKWYEIKPGESLENLEFPEGVKEVRIYVFNEDGELVELDSAGGSAGGSAGG [r7_763_TrROS_Hall] | 2.45 ± 0.027
14 | SAGGSMNPSVSVEEEVFPDGVTRLKLTFSDGKELEAEVTRHADGNVQVTLYDKSPGKKTTYTIPLSSAGGSA [r2_99_JUSTAS] | 1.57 ± 0.22
15 | SAGGSAGGSAGRMLVIEIEMPGRKRTFMIPTPDGPPIKAEELADKLGFDNVTVKIHPIDDSAGGSAGGSAGG [r11_219_TrROS] | 0.261 ± 0.31
16 | SAGGSAGGSAGEKDLPVIEVEFPFPSSFPLPLIKKFAEPFGVKKVEFFEDGTVKVLYVLDSAGGSAGGSAGG [r11_961_TrMRF] | 0.984 ± 0.14
17 | SAGGKLTPEEIEELAKKLAEELRKEGKEVEIEVEIEVDGKLIKIKMKIDPKTKKIEIVKIEVYPKEDLSAGG [r13_37_TrROS_Hall] | 2.93 ± 0.092
18 | SAGGSAGGSAGGKPKKILNIELVLKGKDGKKYKLKIEIYNYPDKPKIYITFPDGTTIEASAGGSAGGSAGGS [r10_404_TrMRF] | 5.28 ± 0.19
19 | SAGGKLTLEEIKALLKEGKEYSLEELLKKIAELLNLTVELEEEPEKVTVVKVDPETGEIVEEKEIDLSAGGS [r8_105_TrROS_Hall] | 2.44 ± 0.036
20 | SAGGVEEIVEKLPEEAEEVEITSEPHPLPGSTLTKYTIKAKNSATGKTKTYEVTVLYDPEGNVLEVLLSAGG [r13_358_JUSTAS] | 2.74 ± 0.082
21 | SAGGSAGGSAMEELVKEAIKEGKPGEVVLIRNEDGSVFALTVKDGKIEIKKLEEVKEVVEESAGGSAGGSAG [r3_244_TrROS_Hall] | 1.06 ± 0.093

Assay: folding stability dG unfold from trypsin proteolysis; higher = more stable
Outline: as §1

Row | Sequence | folding stability dG unfold [kcal/mol]
22 | SAGGLTPEQWREIAKNFANELAKEYQERGPNVKIDVEVDPEEGYFKIKVENNDENMPRTITIPWDDIRSAGG [r13_354_TrROS] | 0.701 ± 0.046
23 | SWMFMIEVHDPKNGKERTVPINMPKEQVLDQIREAQEKGPRIEIWGIPPNAIKEIAEEAKLPVEIHPMPPSA [r9_1207_TrROS] | 0.012 ± 0.24
24 | SAGGSAGGSAGGKVSEIDLSGDKVVVTVKGPGGSVVREVHPDKTLEQVLDELLENPELVDSAGGSAGGSAGG [r7_373_TrMRF] | -0.176 ± 0.1
25 | SAGKIEKIVITKKKDGYVIKVYYKDNKKVKTYKAGKTLEEIKKKLEEEGFEIVKVEVKKVKPGEKVEISAGG [r19_386_TrROS_Hall] | 2.32 ± 0.18
26 | SAGGSAGGKETKTITMIIKVKDENGKELKAGDKVEIEINGKKITIEVTYNKKTGYLVVKATIKPSAGGSAGG [r6_657_TrROS_Hall] | 2.47 ± 0.096
27 | SAGGSAGGSAMLIVGGADPEGAAEAAEEFIAAIEKAAEELGIPPEHIEIPVLIAEPGEAPGSAGGSAGGSAG [r3_249_TrMRF] | 1.19 ± 0.056
28 | SAGGSAGGSAGGSGDPNNPVTLLVLDVPSPEPAGTVYYFPDGYVAVNFPSINRTLVFYGSAGGSAGGSAGGS [r4_78_TrMRF] | 0.766 ± 0.036
29 | SAGGSAGGSAGVITVTKDPKTGKYTVTIETPSGPATTVEVSSEEEAKELAKKLGYDIDALSAGGSAGGSAGG [r11_1049_JUSTAS] | 3.89 ± 0.14
30 | SAGGSAGGSAGMVTRRMTPEEAEKFIADLPSDWSVEEISPLPENDIVEIKIKVEPPFKLQSAGGSAGGSAGG [r17_98_JUSTAS] | -0.199 ± 0.09
31 | SAGGSAGGSAGGKKLRIKVKNKKTGKEIEIEIDVEDKTIEEIAKELAKKLNFEVTEIEPVSAGGSAGGSAGG [r7_590_TrROS_Hall] | 2.2 ± 0.18
